Measurements: article PMC11875817

Experiments:
[1] = target: Escherichia coli MG1655 thioredoxin reductase TrxB (Escherichia coli MG1655) (UniProt P0A9P4)
[2] = target: Bacillus subtilis 168 thioredoxin reductase TrxB (Bacillus subtilis 168) (UniProt P80880)
Chain of UniProt P80880 (P80880 whole entry): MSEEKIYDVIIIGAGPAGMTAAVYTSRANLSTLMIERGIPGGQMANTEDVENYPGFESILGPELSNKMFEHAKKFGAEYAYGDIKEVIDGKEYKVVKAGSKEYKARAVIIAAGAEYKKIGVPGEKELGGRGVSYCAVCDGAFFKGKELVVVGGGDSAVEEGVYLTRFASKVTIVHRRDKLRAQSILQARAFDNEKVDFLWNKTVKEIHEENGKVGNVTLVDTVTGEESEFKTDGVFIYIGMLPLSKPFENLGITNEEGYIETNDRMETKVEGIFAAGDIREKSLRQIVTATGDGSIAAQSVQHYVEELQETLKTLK

Chain of UniProt P0A9P4 (P0A9P4 whole entry): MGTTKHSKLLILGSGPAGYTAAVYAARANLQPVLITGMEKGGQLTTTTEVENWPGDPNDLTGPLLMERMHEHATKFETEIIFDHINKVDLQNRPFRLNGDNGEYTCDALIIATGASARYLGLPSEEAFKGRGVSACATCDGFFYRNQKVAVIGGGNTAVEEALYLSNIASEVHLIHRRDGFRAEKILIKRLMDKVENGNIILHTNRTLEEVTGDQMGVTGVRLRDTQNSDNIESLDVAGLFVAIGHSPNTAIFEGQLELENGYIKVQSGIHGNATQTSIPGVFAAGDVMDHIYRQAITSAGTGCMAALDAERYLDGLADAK

Row | Molecule | Km of TrxB for its substrate TrxA; DTNB reduction assay (TNB release, A412), 50 nM ecTrxB, 0 to 6 μM ecTrxA, NADPH, no auranofin [1] | Km of TrxB for its substrate TrxA; DTNB reduction assay (TNB release, A412), 50 nM bsTrxB, 0 to 6 μM bsTrxA, NADPH, no auranofin [2]
1 | Escherichia coli K-12 MG1655 thioredoxin TrxA (from UniProt P0AA25 1-109) (natural protein) | 1.35 µM | –
2 | Bacillus subtilis 168 thioredoxin TrxA (natural protein) MAIVKATDQSFSAETSEGVVLADFWAPWCGPCKMIAPVLEELDQEMGDKLKIVKIDVDENQETAGKYGVMSIPTLLVLKDGEVVETSVGFKPKEALQELVNKHL | – | 1.72 µM
